Measured values taken from PMC8049779 (Biochemistry, 2020).

Assays:
[1] = molecular target: T1, LmFPPS (Leishmania major, UniProt Q4QBL1); test: SPR, steady-state affinity, protein immobilized on CM5 chip; assay type: binding
T1 sequence (Q4QBL1 1-362): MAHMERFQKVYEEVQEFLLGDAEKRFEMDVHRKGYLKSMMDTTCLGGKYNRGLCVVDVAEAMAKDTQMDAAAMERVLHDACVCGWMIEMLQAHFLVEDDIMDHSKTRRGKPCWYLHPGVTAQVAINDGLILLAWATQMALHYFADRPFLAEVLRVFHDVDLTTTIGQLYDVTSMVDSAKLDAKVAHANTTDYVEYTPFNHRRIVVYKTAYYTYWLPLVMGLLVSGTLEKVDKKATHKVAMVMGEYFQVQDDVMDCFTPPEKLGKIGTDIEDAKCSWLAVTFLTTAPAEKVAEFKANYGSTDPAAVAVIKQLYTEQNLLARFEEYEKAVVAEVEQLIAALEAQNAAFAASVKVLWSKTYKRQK

[2] = molecular target: the molecule itself; test: crystal structure

Molecule CC(C)=CCC/C(C)=C/CC/C(C)=C/CO[P@@](=O)(O)OP(=O)(O)O [FPP] has a Kd [1] of 36.6 µM.

In the case of CC(C)=CCC/C(C)=C/COP(=O)(O)OP(=O)(O)O [GPP], the Kd [1] is reported as 0.049 µM.

B1: E97Y-LmFPPS (Leishmania major farnesyl diphosphate synthase, E97Y mutant) (enzyme)
chain: MAHMERFQKVYEEVQEFLLGDAEKRFEMDVHRKGYLKSMMDTTCLGGKYNRGLCVVDVAEAMAKDTQMDAAAMERVLHDACVCGWMIEMLQAHFLVYDDIMDHSKTRRGKPCWYLHPGVTAQVAINDGLILLAWATQMALHYFADRPFLAEVLRVFHDVDLTTTIGQLYDVTSMVDSAKLDAKVAHANTTDYVEYTPFNHRRIVVYKTAYYTYWLPLVMGLLVSGTLEKVDKKATHKVAMVMGEYFQVQDDVMDCFTPPEKLGKIGTDIEDAKCSWLAVTFLTTAPAEKVAEFKANYGSTDPAAVAVIKQLYTEQNLLARFEEYEKAVVAEVEQLIAALEAQNAAFAASVKVLWSKTYKRQK
B1: binds [2].

B2: T164Y-LmFPPS (Leishmania major farnesyl diphosphate synthase, T164Y mutant) (enzyme)
chain: MAHMERFQKVYEEVQEFLLGDAEKRFEMDVHRKGYLKSMMDTTCLGGKYNRGLCVVDVAEAMAKDTQMDAAAMERVLHDACVCGWMIEMLQAHFLVEDDIMDHSKTRRGKPCWYLHPGVTAQVAINDGLILLAWATQMALHYFADRPFLAEVLRVFHDVDLTTYIGQLYDVTSMVDSAKLDAKVAHANTTDYVEYTPFNHRRIVVYKTAYYTYWLPLVMGLLVSGTLEKVDKKATHKVAMVMGEYFQVQDDVMDCFTPPEKLGKIGTDIEDAKCSWLAVTFLTTAPAEKVAEFKANYGSTDPAAVAVIKQLYTEQNLLARFEEYEKAVVAEVEQLIAALEAQNAAFAASVKVLWSKTYKRQK
B2: binds [2].

B3: T164W-LmFPPS (Leishmania major farnesyl diphosphate synthase, T164W mutant) (enzyme)
chain: MAHMERFQKVYEEVQEFLLGDAEKRFEMDVHRKGYLKSMMDTTCLGGKYNRGLCVVDVAEAMAKDTQMDAAAMERVLHDACVCGWMIEMLQAHFLVEDDIMDHSKTRRGKPCWYLHPGVTAQVAINDGLILLAWATQMALHYFADRPFLAEVLRVFHDVDLTTWIGQLYDVTSMVDSAKLDAKVAHANTTDYVEYTPFNHRRIVVYKTAYYTYWLPLVMGLLVSGTLEKVDKKATHKVAMVMGEYFQVQDDVMDCFTPPEKLGKIGTDIEDAKCSWLAVTFLTTAPAEKVAEFKANYGSTDPAAVAVIKQLYTEQNLLARFEEYEKAVVAEVEQLIAALEAQNAAFAASVKVLWSKTYKRQK
B3: binds [2].
